Results taken from the nanobody polyreactivity screen of Harvey et al. (2022).

assay: yeast display, Sf9 membrane polyspecificity reagent, FACS + sequencing; frameworks hold sequencing errors
Procedure, shortened: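 Polyreactivity labels are assigned by the sorting gate from which each nanobody was recovered. The gates were low and high (top ~1%), set on anti-HA fluorescence for expression and streptavidin fluorescence for reagent binding. Before sorting, galactose-induced (36–48 hours) yeast display cells were stained for 1 hour at 4 °C with 10% biotinylated, detergent-solubilized Sf9 membrane reagent.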

Sequence | polyreactivity (PSR sort gate)
QVQLVESGGGLVQAGGSLRLSCAASGFIFSRYAMGCYRQSPGKERELVATIRRSGRTNYADSVKGRFTISRDNAKNTFYLQMNSLKPEDTAVYYCAKPGQWHRYHYGSWGQGTQVTVSS | low polyreactivity
QVQLVESGGGLVQAGGSLRLSCAASGFIFSRYAMGWYRQAPGKERELVAAISWSGASTYYADSVKGRFTISRDNAKNTVYLQMNSLKPEDTAVYYCNAGYYRGEGFYTYDYWGQGTQVTVSS | high polyreactivity
QVQLVESGGGLVQAGGSLRLSCAASGFIFSRYGMGWYRQAPGKERELVAAISRSGGSTYYADSVKGRFTISRDNAKNTVYLQMNSLKPEDTAVYYCATAYSWRNADRFAYSYDYWGQGTQVTVSS | low polyreactivity
QVQLVESGGGLVQAGGSLRLSCAASGFIFSSYAMGWYRPAPGKERELVAAISKSGDRTSYADSVKGRFTISRDNAKNTVYLQMNSLKPEDTAVYYCNAKYWGYSHHVIWYDYWGQGTQVTVSS | high polyreactivity
QVQLVESGGGLVQAGGSLRLSCAASGFIFSSYAMGWYRQAPGKERELVAAITSGGSTNYADSVKGRFTISRDNAKNTVYLQMNSLKPEDTAVYYCAADGVASLFGDPPTEFDYWGQGTQVTVSS | low polyreactivity
QVQLVESGGGLVQAGGSLRLSCAASGFIFSSYAMGWYRQAPGKERELVAAITSGGSTYYADSVKGRFTISRDNAKNTVYLQMNSLKPEDTAVYYCAADHWDGQYWFDYWGQGTQVTVSS | low polyreactivity
QVQLVESGGGLVQAGGSLRLSCAASGFIFSSYAMGWYSQAPGKERDLGAAISKSGDRTSYADSVKGRFTISRDNAKNTVYLQMNSLKPEDTAVYYCAKDRLYRTKKYRDMYYWGQGTQVTVSS | high polyreactivity
QVQLVESGGGLVQAGGSLRLSCAASGFIFSTNAMGWYRQAPGKERELVAAISASGGITYYADSVKGRFTISRDNAKNTVYLQMNSLKPEDTAVYYCAVYYYSPGNNIYGYWGQGTQVTVSS | high polyreactivity
QVQLVESGGGLVQAGGSLRLSCAASGFIFSTNAMGWYRQAPGKERELVAVINGGGSTYYADSVKGRFTISRDNAKNTVYLQLNSLKPEDTAVYNCARKSWPKEGRVDPGYDYWGQGTQVTVSS | low polyreactivity
QVQLVESGGGLVQAGGSLRLSCAASGFIFSTYAMGWYRQAPGKERELVAAITRTGTRTYYADSVKGRFTISRDNAKNTVYLQMNSLKPEDTAVYYCAARAGGEAYGSRYGYWGQGTQVTVSS | high polyreactivity
QVQLVESGGGLVQAGGSLRLSCAASGFIFSTYAMGWYRQAPGKERELVASTSRRAGRTYYADSVKGRFTISRDNAKNTVYLQMNSLKPEDTAVYYCAAEARVGYHFQILDYWGQGTQVTVSS | high polyreactivity
QVQLVESGGGLVQAGGSLRLSCAASGFIFSVNTMGWYRQAPGKERELVAAISSSSGRTYYADSVKGRFTISRDNAKNTVYLQMNSLKPEDTAVYYCAVLYRWFGAYETYDYLGQGTQVTVSS | high polyreactivity
QVQLVESGGGLVQAGGSLRLSCAASGFIFSWYAMGWYRQAPGKERELVAAISASGTSTYYADSVKGRFTISRDNAKNTVYLQMNSLKPEDTAVYYCAAEFVTEYLYGFVYEYDSWGQGTQVTVSS | low polyreactivity
QVQLVESGGGLVQAGGSLRLSCAASGFIFSWYAMGWYRQAPGKERELVAAISKRGGSTYYADSVKGRFTISRDNAKNTVYLQMNSLKPEDTAVYYCAADRLPSGSLVEYWGQGTQVTVSS | high polyreactivity
QVQLVESGGGLVQAGGSLRLSCAASGFIFSYYAMGLYRQAPGKERELVAAINWTGGSTYYADSVKGRFTISRDNAKNTVYLQMNSLKPEDTAVYYCAADSHLRGRSEDYWGQGTQVTVSS | high polyreactivity
QVQLVESGGGLVQAGGSLRLSCAASGFIFSYYAMGWYRQAPGKERELVAAISSSGSRTYYADSVKGRFTISRDNAKNTVYLQMNSLKPEDTAVYYCNARTTSGWGQGTQVTVSS | high polyreactivity
QVQLVESGGGLVQAGGSLRLSCAASGFIFSYYAMGWYRQAPGKERELVAANSSSGGTTYADSVKGRFTISRDNAKNTVYLQMNSLKPEDTAVYYCARVQYWFYKPMYYWGQGTQVTVSS | high polyreactivity
QVQLVESGGGLVQAGGSLRLSCAASGFIFSYYAMGWYRQAPGKERELVADISRGGSTYYADSVKGRFTISRDNAKNTVYLQMNSLKPEDTAVYYCNAYIRYVVNGYRVYSFDYWGQGTQVTVSS | high polyreactivity
QVQLVESGGGLVQAGGSLRLSCAASGFIFSYYAMGWYRQAPRKERELVAAISKRGGGTYYADSVKGRFTISRDNAKNTVYLQMNSLKPEDTAVYYCNKDGGYGTGSSREYDSWGQGTQVTVSS | high polyreactivity
QVQLVESGGGLVQAGGSLRLSCAASGFIFTDYAMGWYIQAPGKERELVAGISGSGGRTYYADSVKGRFTISRDNAKNTVYLQMNSLKPEDTAVYYCAARGVPWLWYFRGMYWGQGTQVTVSS | high polyreactivity
QVQLVESGGGLVQAGGSLRLSCAASGFIFTDYAMGWYRQAPGKEREFVAAIDWSGGNTYYADSVKGRFTISRDNAKNTVFLQMNSLKPEDSAVYYCAASGSAREYDYWGQGTQVTVSS | low polyreactivity
QVQLVESGGGLVQAGGSLRLSCAASGFIFTFYAMGWYRQAPGKERELVAAISSSGGSTYYADSVKGRFTISRDNAKNTVYLQMNSLKPEDTAVYYCNAVRYHARSGWSDYWGQGTQVTVSS | high polyreactivity

Sequence | polyreactivity (PSR sort gate)
QVQLVESGGGLVQAGGSLRLSCAASGFIFTHNAMGWYRQAPGKERELVAAISRSGGRTYYADSVKGRFTISRDNAKNTVYLQMNSLKPEDTAVYYCAKDAYVYGMGYWGQGTQVTVSS | high polyreactivity
QVQLVESGGGLVQAGGSLRLSCAASGFIFTKNAIGWYRQAPGKERDLVDAISGTGGSTYYADSVKGRFTISRDNAKNTVYLKMNSLKPEDTAVYYCASRRYRLFSTGGQPGYYWGQGTQVTVSS | high polyreactivity
QVQLVESGGGLVQAGGSLRLSCAASGFIFTKYTMAWYRQAPGKERELVAAITGRGTSTSADSVKGRFTISRDNAKNTVYLQMNSLKPEDTAVYYCAAVGWFADFLFSDINGYYWGQGTQVTVSS | low polyreactivity
QVQLVESGGGLVQAGGSLRLSCAASGFIFTLYAMGWYRQAPGKESELVASISSGGSTNYADSVKGRFTISRDNAKNTVYFQMNSLKPEDTAVYYCAAYYYFKSDRFSGRYGRYYWGQGTQVTVSS | high polyreactivity
QVQLVESGGGLVQAGGSLRLSCAASGFIFTLYTMGWYRPAPGKERELVAAIDKKGSTYYADSVKGRFTISRDNAKNTVYLQMNSLKPEDTAVYYCAADDRYRGNREDYWGQGTQVTVSS | low polyreactivity
QVQLVESGGGLVQAGGSLRLSCAASGFIFTRYAMGWYRQAPGKERELVAAISASGGSTYYADSVKGRFTISRDNAKNTVYLQMNSLKPEDTAVYYCAAVPYRYTYDYWGQGTQVTVSS | high polyreactivity
QVQLVESGGGLVQAGGSLRLSCAASGFIFTRYAMGWYRQAPGKERELVAAITRSGGRTYYADSVKGRFTISRDNAKNTVYLQMNSLKPEDTAVYYCAAEGSVGLYGLIMHYWGQGTQVTVSS | high polyreactivity
QVQLVESGGGLVQAGGSLRLSCAASGFIFTSYAMGWYRQAPGKERELVAAISKRGGSTYYADSVKGRFTISRDNAKNTVYLQMNSLKPEDTAVYYCATRYPQPYSPGYTYDYWGLGTQVTVSS | high polyreactivity
QVQLVESGGGLVQAGGSLRLSCAASGFIFTVYAMGWSRQAPGKERELVAAISRGGGSTSYADSVKGRFTISRDNAKNTVYLQMNSLKPEDTAVYYCNAKYKYSRGYDYWGQGTQVTVSS | high polyreactivity
QVQLVESGGGLVQAGGSLRLSCAASGFIFTWYDMGWYRQAPGKERELVAAISRSGGSTYYADSVKGRFTISRDNAKNTVYLQMNSLKPEDTAVYYCIVYRSKKRYGWGEDDYWGQGSQVTVSS | high polyreactivity
QVQLVESGGGLVQAGGSLRLSCAASGFIFTWYTMGWSRQAPGKERELVAAITSGGNTNYADSVKGRFTISRDNAKNTVYLQMNSLKPEDTSVYYCALGYLASRLKFAKYDYWGQGTQVNVSS | high polyreactivity
QVQLVESGGGLVQAGGSLRLSCAASGFIFTYNDMGWYRQAPGKERELVASISWDGGRTYYADSVKRRFTISRDNAKNTVYLQMNSLKPEDTADYYWDKRLGGSPIQARGDYWGQCTQVTVSS | low polyreactivity
QVQLVESGGGLVQAGGSLRLSCAASGFIFTYYAMGWYRQAPGKERELVAAIRRGGNTYYADSVKGRFTISRDNAKNTVYLQMNSLKPEDTAVYYCAASAGPRASYYYWGQGTQVTVSS | high polyreactivity
QVQLVESGGGLVQAGGSLRLSCAASGFIFTYYAMGWYRQAPGKERELVAAISSSGGRTAYADSVKGRFTISRDNAKNTVYLQMNSLKPEDTAVYFCNARGTYRVANYDYWGQGTQVTVSS | high polyreactivity
QVQLVESGGGLVQAGGSLRLSCAASGFIFVDYAMGWYRQAPGKERELVAAISSSGSTTYADSVKGRFTISRDNAKNIVYLQMNSLKPEDTAVYYCAAGLPRVLKDATFDYWGQGTQVTVSS | low polyreactivity
QVQLVESGGGLVQAGGSLRLSCAASGFIFVDYDMGWYRQAPGKERELVAAITDSGTSTYYADSVKGRFTISRDNAKNTVYLQMNSLKPEDTAVYYCNTDVSPSFDYWGQGTQVTVSS | low polyreactivity
QVQLVESGGGLVQAGGSLRLSCAASGFIFVGNAMGGYRQAPGKERELVAAITSTDNTTYADSVKGRFTISRDNAKNTVYLQMNSLKPEDTAVYYCNARGYPYLYGYDYWGQGTQVTVSS | low polyreactivity
QVQLVESGGGLVQAGGSLRLSCAASGFIFVLYSMGWYRQAPGKERELVAGITGSTDTYYADSVKGRFTISRDNAKNTVYLQMNSLKPEDTAVYYCAAGRLRIWYDSWGQGTQVTVSS | low polyreactivity
QVQLVESGGGLVQAGGSLRLSCAASGFIFVNKAMGWYRQAPGKERELVATISRGGSTNYADSVKGRFTISRDNAKNTVYLQMNSLKPEDTAVYYCNARRSVKVYGVDYWGQGTQVTVSS | high polyreactivity
QVQLVESGGGLVQAGGSLRLSCAASGFIFVQNVMGWYRQAPGKERELVAAITWRGTSTYYADSVKGRFTISRDNAKNTVYLLMNSLKPEDTAVYDWNVDLQEDCEEYDYWGQGTQVTVSS | low polyreactivity
QVQLVESGGGLVQAGGSLRLSCAASGFIFVQYAMGWYRQAPGKERELVAAISKGGGSTYYADSVKGRFTISRDNAKNTVYLQMNSLKPEDTAVYDCNADKVTRVTYWDDSWGQGTQVTVSS | high polyreactivity
